test: soluble on expression in E. coli; label from the status in PepcDB or PDB records

Question: With “MIAPQPPMHLSGRCVCPSDPQFVEEKGIQAEDLVIGALENAFQECDDVIGRELEASGQVGGCTALVAVFLQGKLYVANAGDSRAILVRRHEIRQLSSEFTPETERQRIQQLAFTYPELLAGEFTRLEFPRRLKGDDLGQKVLFRDHHMRGWSYKRVEKSDLKYPLIHGQGRQARLLGTLAVSRGLGDHQLRVLDTDIQLKPFLLSIPQVTVLDVHQLAVQEEDVVVMATDGLWDVLSNEQVALLVRSFLTGNQKDDPHRFSELAKMLIHNTQGKDNGATGEGQVSYDDVSVFVIPLHSQAQEGSGH” as the sequence, how does the “soluble on expression in E. coli” value read?
Answer: soluble

Question: Which “soluble on expression in E. coli” value does the source give for “MICLEKVEDIPRLQELFAQILIVHHQARSDVLKVKGSKFTDKELEGVIGDANKPVFVYEDEAGTILCHLFLIIKEVSENDGPQKPIKTLFIDDLCVEEKARGQKLGEKLYQFALDYATEQECYNATLHVWNDNQGTLDFYEHLGVKPRYTEMKTVLKLEHHHHHH” here?
Answer: not soluble

Question: With “MICWGEQKRQADPGFFCRKIVEGVSQPIWLVSDTRRTSDIQWFQEAYGAVIQTVRVVASEQSRQQRGWVFTPGVDDAESECGLDNFGNFDWVIENHGDEQCLEDQLEHLLGFIQAKL” as the sequence, how does the “soluble on expression in E. coli” value read?
Answer: not soluble

Question: With “MIELSHEEELRYNRQIILKSVDFDGQEKLKASKMLIVGLGGLGCAASQYLAAAGVGNLTLLDFDTVSLSNLQRQVLHCDARLNMPKVESAKIALEQINPHINIETINAKLDEEKLAEIIPHFDIVLDCTDNVEIRNQLDRQCNHMKVPLISGAAIRMEGQVSVFTYEPNTPTYRDLSKLFRQNVLSCVEAGVLAPIVGIVGCIQALEAIKVRLKIGKNLCGRLLMIDGFSMNIREIKLPTNME” as the sequence, how does the “soluble on expression in E. coli” value read?
Answer: not soluble

Question: For “MIEQIGADSKSAENKQERKLYIETYGCQMNVADSEVVASVMQMDGYNLTDNVDEADTILVNTCSVRDNAEQKVLNRLAYYHSLRKKRRASSRLVIGVLGCMAERVKEELIREHHVDVVAGPDSYLDLPNLVGAAEQGEKAINVELSTQETYKDVMPLKMGGVHINGFVSIMRGCNNFCSYCIVPYTRGRERSREIESILNEVRDLKAKNFREVTLLGQNVNSYRYEQNGRIIRFPDLLAAVAEAVPDMRIRFTSPHPKDMDDEAIAVMARYRNICNHIHLPAQSGSDKMLRVMKRGYTRRWYLDRVAAIRRAIPDCAISSDLFCGFHSETEEDFEATLSLMEEVRYDSAFMFKYSERPGTYAARHLADDVPEEVKLSRLDRMIALQNRLSEESNKRDIGKTFEVLIEGFSKRSREQLFGRTQQNKVVIFDKNGHRVGQYIYVRIKDASSATLFGEVVETPTSE”, which “soluble on expression in E. coli” value is on record?
Answer: not soluble

Question: For “MIETSLDFSGLNDIAKDLEALSRAENNKVLRDATRAGAEVLKEEVIDRAPVRTGKLKKNVVVVTQKSRRRGEISSGVHIRGVNPRTGNSDNTMKANNPRNAFYWRFVELGTANMPAHPFVRPAYDTREEEAASVAIARMNQAIDEVLSK”, which “soluble on expression in E. coli” value is on record?
Answer: not soluble

Question: Which “soluble on expression in E. coli” value does the source give for “MIEVDGYFYHNAGAENKNTFVNDRWKMNDAAVRGYLVLRYPASSVFEELDTIVGQVIFATRVVREELVVVDSTRRWHRGPWEWLPLDSW” here?
Answer: not soluble

Question: With “MIEYAALKFNVVSDPMSETAKKVIVGMSGGVDSSVSAWLLQQQGYQVEGLFMKNWEEDDGEEYCTAAADLADAQAVCDKLGIELHTVNFAAEYWDNVFELFLAEYKAGRTPNPDILCNKEIKFKAFLEFAAEDLGADYIATGHYVRRADVDGKSRLLRGLDSNKDQSYFLYTLSHEQIAQSLFPVGELEKPQVRKIAEDLGLVTAKKKDSTGICFIGERKFREFLGRYLPAQPGKIITVDGDEIGEHQGLMYHTLGQRKGLGIGGTKEGTEEPWYVVDKDVENNILVVAQGHEHPRLMSVGLIAQQLHWVDREPFTGTMRCTVKTRYRQTDIPCTVKALDDDRIKVIFDEPVAAVTPGQSAVFYNGEVCLGGGIIEQRLPLPV” as the sequence, how does the “soluble on expression in E. coli” value read?
Answer: not soluble

Question: For “MIFDHGKKLMKRVERYSGCSSGSLVAAMFIFNPEKLVFLVSFRKTKGRLPLFSLFLLNFRNLCILSISEAVEEIYKMADEVNDKTLGAMSPGFVISDRLRKVVEKFLPDDVAKANDLLFVSVTKLKTWKNELISNFESKIDLIDCLMASCYHPMYSSGLNGKAPILRGEAYIDGGYSNMIPEFLDMRTVTVSAFAGDADICPVEKSALFNDFMFAFFNQNMKLTLSNMKRVTNALFPPTRAILQEYFNAGARDAEKLLKDSGFYE”, which “soluble on expression in E. coli” value is on record?
Answer: not soluble

Question: Which “soluble on expression in E. coli” value does the source give for “MIFINREREMKILEKEWENRPSFVVLYGRRRVGKTRLLREFSKAKKTFFFVFPEAIKEIQMREFKDAMADFLGDEFIRKLKTDNWFDLLKYLAEEVDDCLIVLDEFTYAVKSDRKILSDLQRVWDIILSEKKVMLVLSAPLLGMMWDEVLSHASPLYGRRTRSMHLKPLNYPDALNFFSDWEFGIRAYMLVGGIPSYLKLASRYNTIEDFLREEFLSDYGFFYDEPYVLLSEELRELRTYFSILIAIAEGNRRLERIANFVGLPARSIYPYVETLMRLGFIEKESPILGSRKVSLYRIKDPMLLTWLTLTYPQMAEISSGTAKLDKLYRVYSIRFEELAKEFLTLFRPIEFKTLGRWWYRGEEIDIVAIDEDIANLIEVKWMDLRKKEALRVLQELEEKAKKVNFSGKINLGIVARNVEKKEELRKEGYLVWDLEDILEAAGNSEREKLLEHHHHHH” here?
Answer: not soluble

Question: For “MIFYLLPSEKKQSTMDLVKEDYFSIWENREKNRFPELNPYRKELIEYFKVETKPLAPAWRRYNGKFWDSLEFWCLPPEVQQNIIDRGIIISPLFGMLGVNDPIPRYSVTFQDKYKGKKLTEFWKEVLKDISKKMFESSVIFDFLTTEQRETLTFPEDVTFVRFDYIRKGKKVVNPMPHRAYTLRYIVEKNVDLNSLEKINFYDYKVSKIEKEGNVIRVIMESEGRYI”, which “soluble on expression in E. coli” value is on record?
Answer: not soluble

Question: For “MIGFLSDRQGFEKQYHDIDLSSFGIREGISEIIASTGFEHPNAAPIGIVMKGERPFVRLFKGSHTWENVLKEKCLASNVVYDPILFVRSTFSDLVPSEFEYVDAGEFKFPVLKEAIAWVVFECINLRNTDQSLVADLVPLNAGFNERNIKELPVPNRGFNAVLEATVHATRYQLTGEEKYLELIRHYESLASKCGGDAEKKAMKLIYEALGLLEHHHHHH”, which “soluble on expression in E. coli” value is on record?
Answer: not soluble

Question: With “MIGGRDDYPESGFSLPFEPGPRRMQIKRGIRILGIDDSPFSRGDRESNLVGVLMRMDGYVEMMEKEKIQVDGDDVNRAIENLFLYTGRVARIIMMSGISFAGFNICDIDALYQRIRVPVISVFEQGGSVERMIAAIEKHLDDPEKVRILRSLKPVEIRNNGYIIMANLSGIDAQSAQEIITRNTIRGKFPEAIRLADLVGKILGR” as the sequence, how does the “soluble on expression in E. coli” value read?
Answer: not soluble

Question: With “MIGILIPVHNEEQLLDLCLETIKQAAAHPALKGEQVEVLVVLDSCTDRSAEIARAHGVMILEVTARNVGQARAEGAAFLLDRGARWLACTDGDSSVASDWLAEQLALDADAVCGTVTLGDWNNDISAPARAAYLKHYQQRDGHRHIHGANLGVSSIAYISAGGFPSLTCHEDVHLVRQLELIGARIAWSCRPRVTTSTRLNSKARGGFGDYLSSLNALEHHHHHH” as the sequence, how does the “soluble on expression in E. coli” value read?
Answer: not soluble

Question: For “MIGMVNVQCDTPLDYYATAPNLLSRDTSVRKRGDSESANASRHNSTKRTPSWRPLFTGQGKKKSSKPKYLQDGRKMTEDGHDEPNKLWEELFLRSFAHKIEQEISSPSPLEAHKNLNSELSKLNIQDKSFYRSTYSLVSPTRIENTDFEELERIENQEKTQDDSKPNRSNSSTERPSSQICSVFLPFIKTIKGNKKKNSITSVNNNTKNS”, which “soluble on expression in E. coli” value is on record?
Answer: not soluble

Question: Which “soluble on expression in E. coli” value does the source give for “MIHLEHINLVVDDIPKALIFYQAAFPHWRIRGGGESTWYSKPRNWTHFGDDYQYIAFSDNGEGENRDLTGHQIGLAHFAFVVSDLDAIITRLTQAGFPIAKEGMEDPYRRNIYFFDAHGFEVEFVEYLSDIPAERNRYLEHHHHHH” here?
Answer: soluble

Question: For “MIHTEPSAQPSTMDTAAFLKHIESAFRRIFSDGIDLMRYLPEDKWLALKQAGLLLPFLDKKYGGRKGSQFEIQEVLRIAGHYGVPVTLRTGIEGALVLQPLQEFGDEAQVAQGLEMIFKGEGGGLGVTEPETSGAAIAREMQSYYEYIDGQTIYVNAAKYWQGNSQSDFLLVAAKERKNGKLAKVIDLLLVPKTYIRCETLASEGLRAVRYAVNRIDAEMPATAVMKLSQSDAAGLRAFQNIFIRSRLQLIGMTHGIMEYILENLERYVRNDIKFVDYERREIRRRHQVSEILYRYVCHSVSPVAPVAHQLMEANIVKTLATEYTYAAAQMLQKLLGAKGFERGHTAGNIAIDIRPFTIFEGPNDMLYAEIYDQFVRATAEEKEAGMKLDKNQTLLDRLQTDARFAAVARDYTLPEDIRSFLQEHTLTDACALQKVFIGKIIARLFVFVQAKHEDTAAFLLNDIRKDILDCRYCG”, which “soluble on expression in E. coli” value is on record?
Answer: not soluble

From the DeepSol protein solubility set
